# Data as given in US20220249679A1 (MITSUBISHI TANABE PHARMA, published 2022).
# Where “and” joins values, the source holds several entries; their conditions need not be identical. Equal entries are not always repeated.
# T1: hCD138 (ELISA of Table 29) (human, UniProt P18827 23-254, limits assumed)
# T1 construct: also called human CD138
# T1 sequence: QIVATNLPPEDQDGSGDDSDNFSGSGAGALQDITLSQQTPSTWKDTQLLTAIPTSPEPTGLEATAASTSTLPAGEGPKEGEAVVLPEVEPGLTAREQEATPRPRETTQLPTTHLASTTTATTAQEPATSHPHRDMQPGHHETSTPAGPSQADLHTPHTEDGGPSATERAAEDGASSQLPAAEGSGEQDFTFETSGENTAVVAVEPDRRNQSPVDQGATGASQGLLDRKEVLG
# T2: Human CD138 His (human, UniProt P18827 23-254)
# T2 construct: also called hCD138
# T2 sequence: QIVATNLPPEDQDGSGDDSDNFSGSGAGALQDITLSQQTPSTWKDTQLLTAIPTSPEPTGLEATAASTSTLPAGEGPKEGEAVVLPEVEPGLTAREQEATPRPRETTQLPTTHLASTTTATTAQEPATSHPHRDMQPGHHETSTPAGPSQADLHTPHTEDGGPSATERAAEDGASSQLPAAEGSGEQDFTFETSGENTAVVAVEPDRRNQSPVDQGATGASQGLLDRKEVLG
# T3: Mouse CD138 His (mouse, UniProt P18828 23-255)
# T3 construct: also called mCD138
# T3 sequence: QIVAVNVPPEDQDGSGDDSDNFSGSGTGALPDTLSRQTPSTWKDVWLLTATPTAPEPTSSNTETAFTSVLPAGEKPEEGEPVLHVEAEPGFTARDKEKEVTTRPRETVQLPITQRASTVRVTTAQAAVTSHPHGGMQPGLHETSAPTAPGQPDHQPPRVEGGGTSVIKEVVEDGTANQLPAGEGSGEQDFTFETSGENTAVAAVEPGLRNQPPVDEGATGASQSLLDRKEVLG
# T4: hCD138 peptide AGEGPKEGEAVVLP (human)
# T4 construct: Portion of the linear CD138 peptide used for immunization; also the peptide in the crystal structure; also called syndecan-1 peptide
# T4 peptide: AGEGPKEGEAVVLP
# T5: Human CD138-Fc protein (human, UniProt P18827 23-254)
# T5 construct: also called hCD138-Fc
# T5 sequence: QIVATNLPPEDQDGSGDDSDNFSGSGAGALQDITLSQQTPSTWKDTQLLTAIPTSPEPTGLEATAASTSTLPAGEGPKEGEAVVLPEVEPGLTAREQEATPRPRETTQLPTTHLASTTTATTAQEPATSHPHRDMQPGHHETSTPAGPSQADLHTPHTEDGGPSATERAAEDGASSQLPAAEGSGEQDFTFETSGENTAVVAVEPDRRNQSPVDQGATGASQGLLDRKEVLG
# T6: Human syndecan-1 (CD138) on the cell surface (human, UniProt P18827 23-310)
# T6 construct: Endogenous on H929, KMS-11 and RT112/84 cells or transfected into Expi293 cells; also called human CD138; hCD138
# T6 sequence: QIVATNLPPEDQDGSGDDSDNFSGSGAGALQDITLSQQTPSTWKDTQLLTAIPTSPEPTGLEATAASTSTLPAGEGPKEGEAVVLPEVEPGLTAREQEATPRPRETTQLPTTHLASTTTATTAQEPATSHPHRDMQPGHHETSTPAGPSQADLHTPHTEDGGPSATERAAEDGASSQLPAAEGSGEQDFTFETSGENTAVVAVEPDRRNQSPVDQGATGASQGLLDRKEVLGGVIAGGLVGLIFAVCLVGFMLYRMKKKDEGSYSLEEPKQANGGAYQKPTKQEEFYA
# How the values were obtained:
# [1] = target: T1, hCD138 (ELISA of Table 29); experiment: hCD138 ELISA
# Human CD138 His [2] = target: T2, Human CD138 His; experiment: SPR, summary table
# Description: (§1) Murine IgGs were purified from the hybridoma supernatants and the IgGs were subject to SPR (surface plasmon resonance) for kinetic binding measurements. Human or mouse CD138 His was immobilized on a GLM chip at […] on a BioRad Proteon. […] KDs were measured using bivalent analyte fit.
# Mouse CD138 His = target: T3, Mouse CD138 His; experiment: SPR, mouse CD138 His immobilized
# Description: as §1
# Human CD138 His [3] = target: T2, Human CD138 His; experiment: SPR (BioRad Proteon), CD138 His immobilized, bivalent analyte fit
# Description: as §1
# [4] = target: T4, hCD138 peptide AGEGPKEGEAVVLP; experiment: ELISA, plate-coated hCD138 peptide
# Description: (§2) A CD138 binding ELISA was performed with 9 representative humanized antibodies to determine binding to portion of the linear CD138 peptide used for immunization (FIG. 7). […] Coated plates were incubated with various dilutions of each of the 9 representative antibodies overnight and binding was detected with a goat anti-human IgG (H+L)-HRP. EC50s were determined using four parameter fit curves (Table 21). An ELISA was also performed to detect binding to plate-coated human CD138-Fc protein (Table 21).
# Human CD138-Fc protein [5] = target: T5, Human CD138-Fc protein; experiment: ELISA, plate-coated human CD138-Fc
# Description: as §2
# [6] = target: T6, Human syndecan-1 (CD138) on the cell …; experiment: FACS on KMS-11 cells, four parameter fit
# Description: (§3) Analysis of cell-surface binding to human CD138 was performed on 9 representative humanized anti-CD138 antibodies by FACS (FIG. 7). […] Two cell lines expressing moderate levels of CD138 were used to test binding; multiple myeloma cell line KMS-11 and bladder cancer line RT112/84. […] EC50s were calculated using four parameter fit curves (Table 20). The constructs were also tested against ARH-77 cells, which are CD138 negative lymphoblasts.
# [7] = target: T6, Human syndecan-1 (CD138) on the cell …; experiment: FACS on RT-112 cells, four parameter fit
# Description: as §3
# [8] = target: T6, Human syndecan-1 (CD138) on the cell …; experiment: summary table; repeats the EC50 (nM) of Table 20, unit not given
# Description: as §3
# Human CD138-Fc protein [9] = target: T5, Human CD138-Fc protein; experiment: summary table; repeats the EC50 (nM) of Table 21, unit not given
# Description: as §2
Binder,EC50 [1],Kd (Human CD138 His [2]),binding result (Mouse CD138 His),Kd (Human CD138 His [3]),koff (Human CD138 His [3]),kon (Human CD138 His [3]),EC50 [4],EC50 (Human CD138-Fc protein [5]),EC50 [6],EC50 [7],FACS binding (KMS11) [8],ELISA CD138 Fc binding (Human CD138-Fc protein [9])
"hF6-HC-G7 (bispecific antibody, human IgG1, kappa, IgG1/kappa) heavy: not shown light: DVVMTQTPLSLSVTPGQPASISCKSSQSLLASDGKTYLNWLLQRPGQSPKRLIYLVSKLDSGVPNRFSGSGSGTDFTLQISRVEAEDVGLYYCWQGAHFPFTFGSGTKLEIKRTVAAPSVFIFPPSDEQLKSGTASVVCLLNNFYPREAKVQWKVDNALQSGNSQESVTEQDSKDSTYSLSSTLTLSKADYEKHKVYACEVTHQGLSSPVTKSFNRGEC",0.55 nM,,,,,,,,,,,
"F12P7G11 (antibody, V domains shown, Murine IgG purified from hybridoma supernatant) VH: QVQLQQSGAELARPGASVKLSCKASGYTFSSHWMQWVKQRPGQGLEWIGAIYPGDGDTRFTQKFKGKATLTADKSSNTAYMQLSSLASEDSAVYYCARGIYYDRSRAMDYWGQGTSVTVSS VL: QIVLSQSPAILSASPGEKVTMTCRASSSVNYMHWYQQKPGSSPKHWIYATSYLASGVPARFSGSGSGTSYSLTISRVEAEDAATYYCQQWSSDPLTFGAGTKLELKR",,9 nM,no binding (tested: 167 nM),8.66 nM and 8.6 nM,0.033 s⁻¹,3.81e+06 M⁻¹ s⁻¹,,,,,,
"F6 ckf-rep (antibody, V domains shown, Humanized F12P16F6 expressed as whole antibody with human constant regions (kappa light chain)) VH: QVQLVQSGAEVVKPGASVKLSCKASGYTFTSYYLYWVKKAPGQGLDWIGEIYPRSGGTNINEKFLSRVTLTADTSTSTAYLELSSLTSEDTAVYYCTRSLLYWGQGTTLTVSS VL: DVVMTQSPLSLSVTLGQPASISCKSSQSLLASDGKTYLNWLQQRPGQSPRRLIYLVSKLDSGVPNRFSGSGSGTDFTLQISRVEAEDVGLYYCWQGAHFPFTFGSGTKLEIKR",,,,,,,0.981 nM,0.535 nM,1.64 nM,2.09 nM,1.64,0.535
"F6 cks-rep (hF6) (antibody, human IgG1, kappa, V domains shown, Humanized IgG1/kappa antibody; also called hF6 (no Fynomer)) VH: QVQLVQSGAEVVKPGASVKLSCKASGYTFTSYYLYWVKKAPGQGLDWIGEIYPRSGGTNINEKFLSRVTLTADTSTSTAYLELSSLTSEDTAVYYCTRSLLYWGQGTTLTVSS VL: DVVMTQTPLSLSVTPGQPASISCKSSQSLLASDGKTYLNWLLQRPGQSPKRLIYLVSKLDSGVPNRFSGSGSGTDFTLQISRVEAEDVGLYYCWQGAHFPFTFGSGTKLEIKR",0.56 nM,,,,,,0.33 nM,0.197 nM,1.2 nM,2.2 nM,1.2,0.197
"F6 akf-rep (antibody, V domains shown, Humanized F12P16F6 expressed as whole antibody with human constant regions (kappa light chain)) VH: QVQLVQSGAEVVKPGASVKLSCKASGYTFTSYYLYWVKKAPGQGLDWIGEIYPRSGGTNYAEKFQGRVTLTADTSTSTAYLELSSLTSEDTAVYYCTRSLLYWGQGTTLTVSS VL: DVVMTQSPLSLSVTLGQPASISCKSSQSLLASDGKTYLNWLQQRPGQSPRRLIYLVSKLDSGVPNRFSGSGSGTDFTLQISRVEAEDVGLYYCWQGAHFPFTFGSGTKLEIKR",,,,,,,1.54 nM,0.879 nM,1.09 nM,1.88 nM,1.09,0.879
"F6 f1ks-rep (antibody, V domains shown, Humanized F12P16F6 expressed as whole antibody with human constant regions (kappa light chain)) VH: QVQLQQSGAEVVKPGASVKLSCKASGYTFTSYYLYWVKKAPGQGLDWIGEIYPRSGGTNINEKFLSRVTLTADTSTSTAYMDLSSLTSEDTAVYYCTRSLLYWGQGTTLTVSS VL: DVVMTQTPLSLSVTPGQPASISCKSSQSLLASDGKTYLNWLLQRPGQSPKRLIYLVSKLDSGVPNRFSGSGSGTDFTLQISRVEAEDVGLYYCWQGAHFPFTFGSGTKLEIKR",,,,,,,1.31 nM,0.762 nM,0.97 nM,2.73 nM,0.97,0.762
"F6 f1ka-rep (antibody, V domains shown, Humanized F12P16F6 expressed as whole antibody with human constant regions (kappa light chain)) VH: QVQLQQSGAEVVKPGASVKLSCKASGYTFTSYYLYWVKKAPGQGLDWIGEIYPRSGGTNINEKFLSRVTLTADTSTSTAYMDLSSLTSEDTAVYYCTRSLLYWGQGTTLTVSS VL: DVVMTQTPLSLSVTPGQPASISCKSSQSLLASDGKTYLNWLLQRPGQSPKRLIYLVSKLDSGVPNRFSGSGSGTDFTLQISRVEAEDVGLYYCMQGAHFPFTFGGGTKVEIKR",,,,,,,0.744 nM,0.433 nM,0.83 nM,1.39 nM,0.83,0.433
"F6 f2kf-rep (antibody, V domains shown, Humanized F12P16F6 expressed as whole antibody with human constant regions (kappa light chain)) VH: QVQLQQSGAEVVKPGASVKLSCKASGYTFTSYYLYWVKKAPGQGLDWIGEIYPRSGGTNINEKFLSRVTITADESTSTVYMQLSSLTSEDSAVYYCTRSLLYWGQGTTLTVSS VL: DVVMTQSPLSLSVTLGQPASISCKSSQSLLASDGKTYLNWLQQRPGQSPRRLIYLVSKLDSGVPNRFSGSGSGTDFTLQISRVEAEDVGLYYCWQGAHFPFTFGSGTKLEIKR",,,,,,,0.726 nM,0.405 nM,1.81 nM,2.46 nM,1.81,0.405
"F6 aks-rep (antibody, V domains shown, Humanized F12P16F6 expressed as whole antibody with human constant regions (kappa light chain)) VH: QVQLVQSGAEVVKPGASVKLSCKASGYTFTSYYLYWVKKAPGQGLDWIGEIYPRSGGTNYAEKFQGRVTLTADTSTSTAYLELSSLTSEDTAVYYCTRSLLYWGQGTTLTVSS VL: DVVMTQTPLSLSVTPGQPASISCKSSQSLLASDGKTYLNWLLQRPGQSPKRLIYLVSKLDSGVPNRFSGSGSGTDFTLQISRVEAEDVGLYYCWQGAHFPFTFGSGTKLEIKR",,,,,,,1.28 nM,0.969 nM,1.36 nM,2.13 nM,1.36,0.969
"F6 f1kf-rep (antibody, V domains shown, Humanized F12P16F6 expressed as whole antibody with human constant regions (kappa light chain)) VH: QVQLQQSGAEVVKPGASVKLSCKASGYTFTSYYLYWVKKAPGQGLDWIGEIYPRSGGTNINEKFLSRVTLTADTSTSTAYMDLSSLTSEDTAVYYCTRSLLYWGQGTTLTVSS VL: DVVMTQSPLSLSVTLGQPASISCKSSQSLLASDGKTYLNWLQQRPGQSPRRLIYLVSKLDSGVPNRFSGSGSGTDFTLQISRVEAEDVGLYYCWQGAHFPFTFGSGTKLEIKR",,,,,,,0.413 nM,0.225 nM,0.94 nM,1.93 nM,0.94,0.225
"F6 cka-rep (antibody, V domains shown, Humanized F12P16F6 expressed as whole antibody with human constant regions (kappa light chain)) VH: QVQLVQSGAEVVKPGASVKLSCKASGYTFTSYYLYWVKKAPGQGLDWIGEIYPRSGGTNINEKFLSRVTLTADTSTSTAYLELSSLTSEDTAVYYCTRSLLYWGQGTTLTVSS VL: DVVMTQTPLSLSVTPGQPASISCKSSQSLLASDGKTYLNWLLQRPGQSPKRLIYLVSKLDSGVPNRFSGSGSGTDFTLQISRVEAEDVGLYYCMQGAHFPFTFGGGTKVEIKR",,,,,,,1.65 nM,0.855 nM,1.3 nM,2.44 nM,1.3,0.855
"F11AP11E5 (antibody, V domains shown, Murine IgG purified from hybridoma supernatant) VH: QVQLQQSGAELVKPGASVKLSCKASGYTFTNYYMYWVKQRPGQGLEWIGEINPGNGGTNFNEKFKNKATLTVDKSSSTAYMQLSSLTSEDSAVYYCTTRFAYWGQGTLVIVSA VL: DVVMTQTPLSLSVTIGQPASISCKSGQSLLYSNGKTYLTWLQQRPGQAPKLLMYQVSKLDPGIPDRFSGSGSETDFTLKISRVEAEDLGVYYCLQNTYYPHTFGAGTKLELKR",,92 nM,no binding (tested: 167 nM),91.6 nM,0.0117 s⁻¹,128000 M⁻¹ s⁻¹,,,,,,
